Target: Crk (UniProt P46108)
Assay: anti-Flag co-IP, anti-HA blot
Settings: reference: cells infected with noninvasive Shigella; sites Y421,Y466,Y482

fold change: stronger; reference 1
Substance: cortactin (from UniProt Q60598) cells infected with invasive Shigella

Reference: publication PMC2172305
